This note sets out measurements from PMC6858323, “Multiple conformations facilitate PilT function in the type IV pilus” (Nature Communications, 2019).

The target of experiment [1] is reductively methylated PilT4 from Geobacter metallireducens (methylated PilT^Gm) (Geobacter metallireducens GS-15). The experiment is described as follows: crystal structure; methylated PilT^Gm, no added nucleotide; vapor diffusion 20 °C; 200 mM ammonium sulfate, 100 mM Bis-Tris-HCl pH 6.5, 25% PEG3350; 3.3 Å; OCOCOC conformation.
Experiment [2] has as its target PilB from Geobacter metallireducens (PilB^Gm) (Geobacter metallireducens). The experiment is described as follows: cryo-EM structure; PilB^Gm 0.6 mg/ml without added nucleotide, 4 °C; 2D class averages and 7.8 Å 3D map, CCOCCO conformation.
Experiment [3] addresses PilT4 from Geobacter metallireducens (PilT^Gm) (Geobacter metallireducens GS-15). As to the kind of experiment: crystal structure; PilT^Gm without added nucleotide (partial-occupancy ADP, pH 7.1, 3.0 Å) or preincubated with Mg2+ and ATP and unbound nucleotide removed (full-occupancy ADP, pH 7.6); 11.5% PEG3350, 200 mM L-proline, 100 mM HEPES; 20 °C; OCOCOC conformation, pseudo-C3.

Experiment [4] has the same target. As to the kind of experiment: cryo-EM structure; PilT^Gm 0.5 mg/ml incubated 10 min at 4 °C with 1 mM MgCl2 plus 1 mM ATP; 4.4 Å map, CCCCCC conformation; 2D class averages also with 1 mM ATP plus 0.1 or 1 mM ADP.
For experiment [5] the target is unchanged. As to the kind of experiment: crystal structure; PilT^Gm with 2 mM ATP and 2 mM MgCl2; 9% PEG4000, 100 mM MES pH 6, 200 mM MgCl2; 20 °C; 1.9 Å; CCCCCC conformation.
For experiment [6] the target is unchanged. As to the kind of experiment: crystal structure; PilT^Gm with 2 mM ANP and 2 mM MgCl2; 2% benzamidine-HCl, 100 mM HEPES-HCl pH 7.9, 200 mM ammonium acetate, 17.5% PEG3350; 20 °C; anisotropic 4.1, 6.7 and 4.0 Å; CCOCCO conformation.
Experiment [7] has the same target. The experiment is described as follows: cryo-EM structure; PilT^Gm 0.5 mg/ml without added nucleotide, 4 °C; untilted 2D class averages and 40° tilted 3D maps (OCOCOC 4.0 Å, OOCOOC 4.1 Å); 2D class averages also with 1 mM MgCl2 plus 0.1 or 1 mM ADP.

For the substance “reductively methylated PilT4 from Geobacter metallireducens (methylated PilT^Gm) (enzyme)”, the stoichiometry N in experiment [1] came out at 6.
On to “PilB from Geobacter metallireducens (PilB^Gm) (enzyme)”, for which the stoichiometry N in experiment [2] is 6.
With “PilT4 from Geobacter metallireducens (PilT^Gm) (enzyme)”, the stoichiometry N in experiment [3], in experiment [4], in experiment [5], in experiment [6] and in experiment [7] was 6 in each case.

Usually stoichiometry N stands for a count of units in the complex or per binding partner.
